Results from patent publication US20200407447A1 (CEINGEBIOTECNOLOGIE AVANZATE FRANCO SALVATORE SCARL, published 2020).
Blank lines part the entries; values can stand above or below the binder they belong to.

Tests used:
[1] = biological target: T1, human PD-L1 on cells (activated hPBMCs; MDA-MB-231 tumor cells) (human, UniProt Q9NZQ7 19-290); assay: flow cytometry on hPBMCs activated with anti-CD3/CD28 beads, MFI against IgG concentration
T1 construct: whole, on cells; also called PD-L protein
Procedure: Human PBMCs isolated from healthy donors were activated with anti-CD3/CD28 beads to stimulate PD-L1 expression.
The human peripheral blood mononuclear cells (hPBMCs) isolated from healthy donors were thawed in RPMI 1640 medium (Gibco), supplemented with 2 mM L-glutamine, 10% (v/v) CTL wash supplement (CTL, Shaker Heights, Ohio, USA), 100 U/ml Benzonase (Merck Millipore, Burlington, Mass., United States). After centrifugation at 1200 rpm for 10 min, they were resuspended in complete RPMI medium supplemented with 10% (v/v) heat-inactivated fetal bovine serum (FBS, Sigma), 2 mM L-glutamine, 100 U/ml penicillin and 100 µg/ml streptomicin (Gibco), HEPES 10 mM (Gibco). After resting for 16 h at 37° C. in a humidified atmosphere with 5% CO2, hPBMCs were counted, resuspended at a concentration of 10\hat{ }6 viable cells/ml in complete RPMI medium (as above) and activated with Dynabeads Human T-Activator CD3/CD28 (Gibco), 25 μl beads/10\hat{ }6 viable cells. 24 h post activation, the cells were centrifuged and plated at 4×10\hat{ }5 cells/well in PBS in a 96 well plate with round bottom. After one wash in PBS, they were incubated with 50 μl LIVE/DEAD™ Fixable Violet Dead Cell Stain (Invitrogen) for 30 min at +4° C. and washed once again.

[2] = biological target: T2, human PD-1 on activated hPBMCs (human, UniProt Q15116 25-288); assay: cell ELISA on activated hPBMCs (apparent Kd, legend paragraph 26) [continued]
T2 construct: whole, on cells; also called cognate receptor expressed on hPBMCs
Procedure: (§1) FIG. 2: Binding affinity of the selected antibodies for lymphocytes. The ELISA assays were performed with mAbs used at increasing concentrations (7.5 nM, 25 nM, 50 nM, 100 nM) on activated hPBMCs (black curves) or untreated hPBMCs (grey curves).
(§2) Plates were then centrifuged, cell pellets were washed with PBS and incubated with HRP-conjugated anti-human IgG goat polyclonal antibody for 1 hour at room temperature. Following additional washes in PBS 1×, TMB reagent was added for 10 min before quenching with an equal volume of 1N HCl. Absorbance at 450 nm was measured by the Envision plate reader (Perkin Elmer, Waltham, Mass., USA).

[3] = biological target: T3, human PD-1/Fc recombinant chimeric protein (R&D Systems) (human, UniProt Q15116 25-167); assay: ELISA on coated recombinant PD-1/Fc, mAb at increasing concentrations (apparent Kd, legend paragraph 26) [continued]
T3 construct: Bought from R&D Systems; also called rhPD-1; recombinant protein/Fc
Procedure: as §1
(§3) To confirm the binding specificity of the purified mAbs, ELISA assays were performed on chimeric proteins (coated at 5 μg/ml), tumor cells (PD-L1-positive breast cancer MDA-MB-231 cells or PD-L1-negative breast cancer MCF7), and untreated or activated hPBMCs. The ELISA assays on coated chimeric protein were performed by coating Nunc™ flat-bottom 96-well plates (Fisher Scientific, Thermo Fisher Scientific) with 5 μg/ml […], […] and rhLAG-3 recombinant proteins in a solution of 0.05 M NaHCO₃ for 72 hours at 37° C. […] After extensive washes with PBS, the plates were incubated with (HRP)-conjugated anti-human IgG (Fab′)2 goat monoclonal antibody (Abcam, Cambridge, UK) for 1 hour, washed again and incubated with TMB reagent for 10 min before quenching with an equal volume of 1N HCl.

[4] = biological target: T4, human LAG-3 on activated hPBMCs (human, UniProt P18627 23-525); assay: cell ELISA on activated hPBMCs (apparent Kd, legend paragraph 26)
T4 construct: whole, on cells; also called cognate receptor expressed on hPBMCs
T4 sequence (looked up): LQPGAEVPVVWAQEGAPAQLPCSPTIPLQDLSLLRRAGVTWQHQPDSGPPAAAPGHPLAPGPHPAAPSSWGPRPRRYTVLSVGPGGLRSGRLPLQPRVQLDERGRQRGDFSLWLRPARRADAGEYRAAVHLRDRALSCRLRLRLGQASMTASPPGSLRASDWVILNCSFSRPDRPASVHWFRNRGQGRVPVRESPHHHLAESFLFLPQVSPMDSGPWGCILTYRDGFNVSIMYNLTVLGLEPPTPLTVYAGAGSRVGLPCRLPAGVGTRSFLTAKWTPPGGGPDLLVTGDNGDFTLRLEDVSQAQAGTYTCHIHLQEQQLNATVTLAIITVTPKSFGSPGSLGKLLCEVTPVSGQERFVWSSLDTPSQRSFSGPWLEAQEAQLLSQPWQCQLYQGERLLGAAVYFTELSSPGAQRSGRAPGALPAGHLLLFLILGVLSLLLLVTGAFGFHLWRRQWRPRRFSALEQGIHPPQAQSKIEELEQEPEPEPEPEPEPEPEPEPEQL
Procedure: as §1, §2

[5] = biological target: T5, human LAG-3/Fc recombinant chimeric protein (R&D Systems) (human, UniProt P18627 23-450); assay: ELISA on coated recombinant LAG-3/Fc, mAb at increasing concentrations (apparent Kd, legend paragraph 26)
T5 construct: Bought from R&D Systems; also called rhLAG-3; recombinant protein/Fc
T5 sequence (looked up): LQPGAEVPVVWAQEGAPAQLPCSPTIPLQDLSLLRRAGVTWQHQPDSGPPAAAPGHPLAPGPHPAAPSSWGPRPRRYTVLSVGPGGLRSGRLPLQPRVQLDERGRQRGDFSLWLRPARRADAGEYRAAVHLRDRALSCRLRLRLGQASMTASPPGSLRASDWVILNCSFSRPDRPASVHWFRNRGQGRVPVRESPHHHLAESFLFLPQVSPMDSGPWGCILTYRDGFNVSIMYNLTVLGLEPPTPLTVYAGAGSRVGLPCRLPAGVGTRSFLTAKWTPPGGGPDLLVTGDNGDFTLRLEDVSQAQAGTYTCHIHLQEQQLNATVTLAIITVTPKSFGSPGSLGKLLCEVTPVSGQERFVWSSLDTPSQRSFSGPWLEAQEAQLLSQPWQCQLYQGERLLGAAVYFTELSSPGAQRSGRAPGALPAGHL
Procedure: as §1, §3

[6] = biological target: T1, human PD-L1 on cells (activated hPBMCs; …); assay: cell ELISA on activated hPBMCs (apparent Kd, legend paragraph 26) [continued]
Procedure: as §1, §2

[7] = biological target: T1, human PD-L1 on cells (activated hPBMCs; …); assay: cell ELISA on MDA-MB-231 tumor cells expressing PD-L1 (apparent Kd) [continued]
Procedure: as §2

[8] = biological target: T6, human PD-L1/Fc recombinant chimeric protein (R&D Systems) (human, UniProt Q9NZQ7 19-239); assay: ELISA on coated recombinant PD-L1/Fc, mAb at increasing concentrations (apparent Kd, legend paragraph 26) [continued]
T6 construct: Bought from R&D Systems; also called recombinant protein/Fc
Procedure: as §1, §3

T1 sequence (Q9NZQ7 19-290): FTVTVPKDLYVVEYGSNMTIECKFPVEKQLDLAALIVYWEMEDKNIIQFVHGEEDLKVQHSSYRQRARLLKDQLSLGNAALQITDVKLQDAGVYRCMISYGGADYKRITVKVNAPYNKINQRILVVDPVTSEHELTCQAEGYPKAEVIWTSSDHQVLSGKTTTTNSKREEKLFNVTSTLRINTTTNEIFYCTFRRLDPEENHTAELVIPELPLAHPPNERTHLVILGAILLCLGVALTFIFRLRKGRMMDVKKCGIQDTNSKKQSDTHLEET
T3 sequence (Q15116 25-167, change not shown): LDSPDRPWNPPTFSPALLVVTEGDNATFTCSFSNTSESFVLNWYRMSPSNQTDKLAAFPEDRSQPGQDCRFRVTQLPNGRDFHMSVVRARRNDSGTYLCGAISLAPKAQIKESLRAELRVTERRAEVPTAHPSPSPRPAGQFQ
T2 sequence (Q15116 25-288): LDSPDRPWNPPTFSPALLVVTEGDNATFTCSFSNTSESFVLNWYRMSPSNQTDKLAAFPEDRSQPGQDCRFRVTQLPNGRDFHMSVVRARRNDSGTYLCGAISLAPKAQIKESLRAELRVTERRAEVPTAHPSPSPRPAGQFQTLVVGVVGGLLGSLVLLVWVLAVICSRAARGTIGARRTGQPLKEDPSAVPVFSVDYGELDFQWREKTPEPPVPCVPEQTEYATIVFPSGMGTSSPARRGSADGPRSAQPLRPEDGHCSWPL
T6 sequence (Q9NZQ7 19-239, change not shown): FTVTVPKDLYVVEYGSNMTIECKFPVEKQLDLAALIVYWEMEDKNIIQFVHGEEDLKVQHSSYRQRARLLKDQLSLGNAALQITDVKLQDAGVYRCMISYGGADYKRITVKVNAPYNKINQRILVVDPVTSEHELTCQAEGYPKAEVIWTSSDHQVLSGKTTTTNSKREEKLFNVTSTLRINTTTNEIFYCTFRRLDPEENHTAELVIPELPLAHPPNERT

binding result [1]: binds
B1: PD-L1_E (antibody, V domains shown)
VH: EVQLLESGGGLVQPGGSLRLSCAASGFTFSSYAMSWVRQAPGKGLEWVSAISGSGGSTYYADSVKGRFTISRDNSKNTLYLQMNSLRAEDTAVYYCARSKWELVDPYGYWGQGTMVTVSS
VL: ANFMLTQPHSVSESPGKTITISCTRSSGSIAGNYVQWYQQRPGSAPIIVIYEDNQRPSGVPDRFSGSIDSSSNSASLTISRLKTEDEADYYCQSYEASNVVFGGGTKLTVL
notes: Tested as a mAb detected with anti-human IgG Fc

EC50 (read off the curve) [1]: ~2 nM
B2: PD-L1_C (antibody, V domains shown)
VH: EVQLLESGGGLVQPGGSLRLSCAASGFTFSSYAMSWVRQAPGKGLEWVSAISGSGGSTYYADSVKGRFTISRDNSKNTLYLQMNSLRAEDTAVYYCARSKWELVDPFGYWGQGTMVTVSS
VL: B1 VL
notes: as for B1

Kd [2]: 0.6 nM
Kd [3]: 0.29 nM
B3: PD-1_B (antibody, V domains shown)
VH: QVQLVQSGAEVKKPGASVKVSCKASGYTFTSYGISWVRQAPGQGLEWMGWISAYNGNTNYAQKLQGRVTMTTDTSTSTAYMELRSLRSDDTAVYYCARDFGSGSYYDLDYWGQGTMVTVSS
VL: ANFMLTQPHSVSESPGKTVTISCTGSSGSIASNYVQWYQQRPGSAPTTVIYEDNQRPSGVPDRFSGSIDSSSNSASLTISGLKTEDEADYYCQSYDSNNHWVFGGGTKLTVL
notes: also called mAb PD-1_B

Kd [4]: 6 nM
Kd [5]: 38 nM
B4: LAG-3_A (antibody, human IgG4, V domains shown)
VH: EVQLLESGGGLVQPGGSLRLSCAASGFTFSSYAMSWVRQAPGKGLEWVSAISGSGGSTYYADSVKGRFTISRDNSKDTLYLQMNSLRAEDTAVYYCARDGPLYDISAGFVPISYYLDYWGQGTTVTVSS
VL: AQPVLTQPPSASGTPGQRVTISCSGSFSNIGSNYVFWYQQLPGTAPKLLISGNNQRPSGVPDRFSGSKSGTSASLAISGLRSQDEADYYCATWDDSLRGWVFGGGTKLTVL
notes: also called mAb LAG-3_A

Kd [4]: 19 nM
Kd [5]: 24 nM
B5: LAG-3_D (antibody, V domains shown)
VH: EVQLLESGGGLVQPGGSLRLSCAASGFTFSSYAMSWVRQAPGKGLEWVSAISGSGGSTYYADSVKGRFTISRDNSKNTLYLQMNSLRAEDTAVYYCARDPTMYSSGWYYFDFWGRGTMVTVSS
VL: ALSYVLTQPPSVSEAPRQRVTISCSGSSSNIGNNAVNWYQQLPGKAPKLLIYYDDLLPSGVSDRFSGSKSGTSASLAISGLQSEDEADYYCATWDDSLNGQVFGTGTKLTVL

Kd [2]: 0.14 nM
Kd [3]: 0.15 nM
B6: PD-1_A (antibody, V domains shown)
VH: QVQLQESGPGVVKPSGTLSLTCAISGGSIGSGGSIRSTRWWSWVRQSPGKGLEWIGEIYHSGSTNYNPSLKSRVTISLDKSRNHFSLRLNSVTAADTAVYYCARQDYGDSGDWYFDLWGKGTLVTVSS
VL: AQAVLTQPSSVSGAPGQRVTISCTGSSSNIGAGYDVHWYQQLPGTAPKLLIYGNNNRPSGVPDRFSGSKSGTSASLAITGLQTEDEADYYCQSYDNSLSGEVFGGGTKVTVL
notes: also called mAb PD-1_A; anti-PD-1 antibody PD-1_A

Kd [4]: 2.6 nM
Kd [5]: 52 nM
B7: LAG-3_C (antibody, human IgG4, V domains shown)
VH: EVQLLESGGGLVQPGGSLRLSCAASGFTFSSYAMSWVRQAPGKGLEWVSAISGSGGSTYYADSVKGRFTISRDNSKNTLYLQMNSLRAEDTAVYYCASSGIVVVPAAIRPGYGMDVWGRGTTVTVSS
VL: AQAVLTQPSSVSGAPGQRVTISCTGSSSNIGAGYDVHWYQQLPGTAPKLLIYGNNNRPSGVPDRFSGSKSGTSASLAITGLQPEDEADYYCQSYDFGLSRVFGGGTKLTVL
notes: also called mAb LAG-3_C

Kd [6]: 0.1 nM
Kd [7]: 0.74 nM
Kd [8]: 0.46 nM
B8: PD-L1_B (antibody, V domains shown)
VH: QVQLVQSGAEVKKPGSSVEVSCKVSGNTVIGYAVSWVRQAPGQGPEWMGRLIPSVGLTNYAQKFQDRLTFTADTSTSTVTMALSSLTSEDTAMYYCARDVSPAVPVSQYWGQGTLVTVSS
VL: AQSVLTQPPSVSAAPGQKVIISCSGDSFNIGSHSVSWYKQLPGSAPKLLIYENNVRPSGIPDRFSGSKSGTSATLGITGLQTRDEADYYCGAWDSSLNGHWVFGGGTQLTVL
notes: also called mAb PD-L1_B
